# Reference: the supplement of paper PMC10567573
# B1: TBX6 (parent)
# chain: AFLELPHGSGGSGYPAAPPAVPFA
# B2: RAD51 (parent)
# chain: RFLRMLLRLADEFGVAVVITNQVV
# Variants of: B1
# Test: protein stability index of a GFP-peptide fusion (GPS, HEK-293T) (PSI 1-6); higher = more stable
# Conditions: c terminus: a fixed tail appended
# 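Note: lentivirally expressed fusions sorted by FACS into six bins by GFP to DsRed ratio, PSI derived from sequencing read proportions per bin multiplied by bin number.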
row,Variant,protein stability index
1,P22H,2.46
2,P22N,1.89
3,P22Y,2.02
4,P22S,2.18
5,P22K,2.19
6,P22R,2.3
7,P22W,2.25
8,P22T,1.86
9,P22V,2.16
10,P22F,2.13
11,P22L,1.4
12,P22M,2.02
13,P22I,1.73
14,P22Q,2.52
15,P22G,2.42
16,A24H,1.92
17,A24N,2.68
18,A24M,2.19
19,A24F,1.54
20,A24S,2.63
21,A24R,2.54
22,A24Q,2.71
23,A24W,1.67
24,A24G,2.56
25,A24I,2.23
26,A24C,1.53

row,Variant,protein stability index
1,A24T,2.55
2,A24K,2.55
3,A24E,3.4
4,A24D,3.33
5,A24V,2.47
6,A24L,1.6
7,A24Y,1.89
8,F23T,3
9,F23Y,2.42
10,F23R,3.3
11,F23I,2.52
12,F23M,2.62
13,F23W,2.18
14,F23L,2.35
15,F23S,3.21
16,F23K,3.38
17,F23H,3.05
18,F23V,2.89
19,F23Q,3.7
20,F23C,3.36
21,F23D,4.19
22,F23G,3.72
23,F23N,3.76
24,F23A,3.48
25,F23E,3.56

# Variants of: B2
# Test: as above
# Conditions: c terminus: a fixed tail appended
row,Variant,protein stability index
1,R1K,2.54
2,R1H,1.78
3,R1N,2.71
4,R1A,1.62
5,R1V,1.52
6,R1P,2.08
7,R1W,3
8,R1F,1.92
9,R1T,1.37
10,R1S,2.27
11,R1C,2.23
12,R1E,2.06
13,R1G,2.51
14,R1Y,2.8
15,R1I,2.9
16,R1L,2.12
17,R1M,2.43
18,R1Q,1.79
19,R1D,2
20,V17A,1.67
21,V17N,2.35
22,V17F,2.19
23,V17M,2.49
24,V17H,2.9

row,Variant,protein stability index
1,V17R,1.52
2,V17G,3.41
3,V17L,2.96
4,V17Q,1.25
5,V17S,1.36
6,V17P,1.86
7,V17E,2.58
8,V17I,3.4
9,V17D,2.06
10,V17C,1.06
11,V17K,2.65
12,F13T,1.97
13,F13D,3.29
14,F13H,1.86
15,F13S,1.59
16,F13E,2.74
17,F13M,2.21
18,F13P,1.25
19,F13W,3.5
20,F13N,1.26
21,F13A,1.3
22,F13L,2.56
23,F13Y,1.72
24,F13G,2.04

row,Variant,protein stability index
1,F13Q,1.61
2,F13K,2.2
3,F13R,2.34
4,D11C,2.06
5,D11K,3.43
6,D11R,2.85
7,D11S,2.32
8,D11Y,3.81
9,D11L,2.46
10,D11N,1.66
11,D11A,3.02
12,D11V,2.46
13,D11E,1.97
14,D11P,1.85
15,D11T,2.51
16,D11I,2.43
17,L9F,1.76
18,L9R,1.7
19,L9Y,2.89
20,L9D,2.1
21,L9K,1.98
22,L9S,1.76
23,L9Q,2.88
24,L9M,1.54

row,Variant,protein stability index
1,L9N,2.37
2,L9P,3.32
3,L9E,1.65
4,L9T,2.51
5,L9I,2.52
6,L9G,3.55
7,L9V,2.38
8,M5Q,2.11
9,M5L,2.13
10,M5Y,2.57
11,M5A,3.9
12,M5H,3.79
13,M5C,3.05
14,M5R,1.83
15,M5N,1.93
16,M5K,4.13
17,M5D,2.28
18,M5S,2.93
19,M5F,2.15
20,M5I,2.23
21,M5T,3.18
22,M5E,2.43
23,L6G,2.56
24,L6M,2.02

row,Variant,protein stability index
1,L6R,2.89
2,L6K,1.96
3,L6C,2.78
4,L6N,2.75
5,L6A,1.91
6,L6T,3.04
7,L6W,2.54
8,L6P,3.81
9,L6Y,3.5
10,L6H,1.55
11,L6Q,4.57
12,L6V,2.54
13,L6F,3.14
14,L6S,3.28
15,R8H,3.25
16,R8G,1.46
17,R8S,2.96
18,R8K,2.33
19,R8A,1.42
20,R8F,2.47
21,R8L,3.02
22,R8V,2.87
23,R8N,1.78
24,R8D,2.57

row,Variant,protein stability index
1,R8W,1.83
2,R8Q,2.09
3,R8M,2.17
4,R8I,3.12
5,R8C,2.36
6,A16T,1.79
7,A16N,3.11
8,A16D,3.29
9,A16M,3.12
10,A16C,1.43
11,A16F,1.55
12,A16K,2.4
13,A16R,2.25
14,A16V,1.34
15,A16I,2.24
16,A16S,2.34
17,A16Y,1.93
18,A16H,3.12
19,A16P,1.08
20,A16L,2.2
21,A16W,2.44
22,A16Q,1.87
23,L7V,2.15
24,L7S,1.6

row,Variant,protein stability index
1,L7E,2.69
2,L7K,1.98
3,L7H,2.34
4,L7R,1.49
5,L7M,1.55
6,L7Q,2.34
7,L7P,2.49
8,L7G,3.06
9,L7I,2.79
10,L7T,2.6
11,L7Y,2.13
12,L7A,1.25
13,L7W,1.94
14,L7F,2.04
15,L7C,2.54
16,L7N,1.71
17,L7D,1.3
18,R4H,2.49
19,R4V,1.91
20,R4D,1.96
21,R4K,2.82
22,R4P,2.39
23,R4Q,1.92
24,R4E,1.23

row,Variant,protein stability index
1,R4T,2.42
2,R4W,1.77
3,R4A,2.24
4,R4M,1.97
5,R4S,3.21
6,R4Y,2.93
7,R4N,3.36
8,R4I,2.45
9,R4C,2.77
10,R4F,2.58
11,V15M,1.56
12,V15I,2.51
13,V15L,2.06
14,V15A,1.79
15,V15P,3.13
16,V15N,2.31
17,V15K,2.75
18,V15G,1.98
19,V15H,2.6
20,V15E,2.08
21,V15C,3.16
22,V15W,2.43
23,V15F,2.82
24,V15Q,3.05

row,Variant,protein stability index
1,V15R,2.32
2,V15Y,1.8
3,V15S,3.16
4,V15D,1.77
5,A10L,3.03
6,A10E,2.5
7,A10I,3.61
8,A10Q,1.82
9,A10P,2.33
10,A10R,1.65
11,A10C,1.79
12,A10F,2.21
13,A10K,2.9
14,A10V,1.95
15,A10M,3.27
16,A10H,1.64
17,A10S,1.65
18,A10N,2.58
19,A10Y,3.62
20,A10D,1.97
21,A10T,3.2
22,F2G,1.75
23,F2C,1.75
24,F2P,2.89

row,Variant,protein stability index
1,F2V,1.59
2,F2H,1.78
3,F2Q,2.22
4,F2Y,2.21
5,F2M,2.29
6,F2L,1.6
7,F2T,3.18
8,F2N,2.1
9,F2A,1.89
10,F2E,1.51
11,F2W,1.88
12,F2K,1.39
13,F2I,2.4
14,F2S,1.91
15,F2D,2.27
16,F2R,1.7
17,G14F,4.07
18,G14A,2.83
19,G14S,1.53
20,G14H,1.82
21,G14L,3.4
22,G14M,1.74
23,G14V,2.18
24,G14Q,1.69

row,Variant,protein stability index
1,G14T,1.94
2,G14Y,3.29
3,G14D,2.97
4,G14P,1.33
5,G14C,2.4
6,G14R,2.06
7,G14N,2.03
8,G14K,1.96
9,G14E,1.92
10,E12I,3.64
11,E12M,2.33
12,E12T,1.46
13,E12D,2.48
14,E12N,1.68
15,E12S,2.08
16,E12L,2.75
17,E12V,1.94
18,E12P,2.01
19,E12R,3.5
20,E12C,3.13
21,E12Q,3.13
22,E12K,2.42
23,E12A,2.02
24,E12H,3.24

row,Variant,protein stability index
1,E12G,1.3
2,E12F,3.25
3,L3T,3.74
4,L3R,1.17
5,L3W,2.03
6,L3Y,2.14
7,L3E,3.2
8,L3H,2.75
9,L3A,4.15
10,L3V,3.98
11,L3Q,1.78
12,L3D,2.04
13,L3N,3.69
14,L3M,2.19
15,L3I,1.35
16,L3K,2.6
17,L3S,3.09
18,L3G,2.62
19,L3C,1.78
